Literature values as cited in paper PMC2996745.

Molecular target: VEGFR2 (flk-1) (Homo sapiens) (UniProt P35968)
Sequence of UniProt P35968 (P35968 20-1356): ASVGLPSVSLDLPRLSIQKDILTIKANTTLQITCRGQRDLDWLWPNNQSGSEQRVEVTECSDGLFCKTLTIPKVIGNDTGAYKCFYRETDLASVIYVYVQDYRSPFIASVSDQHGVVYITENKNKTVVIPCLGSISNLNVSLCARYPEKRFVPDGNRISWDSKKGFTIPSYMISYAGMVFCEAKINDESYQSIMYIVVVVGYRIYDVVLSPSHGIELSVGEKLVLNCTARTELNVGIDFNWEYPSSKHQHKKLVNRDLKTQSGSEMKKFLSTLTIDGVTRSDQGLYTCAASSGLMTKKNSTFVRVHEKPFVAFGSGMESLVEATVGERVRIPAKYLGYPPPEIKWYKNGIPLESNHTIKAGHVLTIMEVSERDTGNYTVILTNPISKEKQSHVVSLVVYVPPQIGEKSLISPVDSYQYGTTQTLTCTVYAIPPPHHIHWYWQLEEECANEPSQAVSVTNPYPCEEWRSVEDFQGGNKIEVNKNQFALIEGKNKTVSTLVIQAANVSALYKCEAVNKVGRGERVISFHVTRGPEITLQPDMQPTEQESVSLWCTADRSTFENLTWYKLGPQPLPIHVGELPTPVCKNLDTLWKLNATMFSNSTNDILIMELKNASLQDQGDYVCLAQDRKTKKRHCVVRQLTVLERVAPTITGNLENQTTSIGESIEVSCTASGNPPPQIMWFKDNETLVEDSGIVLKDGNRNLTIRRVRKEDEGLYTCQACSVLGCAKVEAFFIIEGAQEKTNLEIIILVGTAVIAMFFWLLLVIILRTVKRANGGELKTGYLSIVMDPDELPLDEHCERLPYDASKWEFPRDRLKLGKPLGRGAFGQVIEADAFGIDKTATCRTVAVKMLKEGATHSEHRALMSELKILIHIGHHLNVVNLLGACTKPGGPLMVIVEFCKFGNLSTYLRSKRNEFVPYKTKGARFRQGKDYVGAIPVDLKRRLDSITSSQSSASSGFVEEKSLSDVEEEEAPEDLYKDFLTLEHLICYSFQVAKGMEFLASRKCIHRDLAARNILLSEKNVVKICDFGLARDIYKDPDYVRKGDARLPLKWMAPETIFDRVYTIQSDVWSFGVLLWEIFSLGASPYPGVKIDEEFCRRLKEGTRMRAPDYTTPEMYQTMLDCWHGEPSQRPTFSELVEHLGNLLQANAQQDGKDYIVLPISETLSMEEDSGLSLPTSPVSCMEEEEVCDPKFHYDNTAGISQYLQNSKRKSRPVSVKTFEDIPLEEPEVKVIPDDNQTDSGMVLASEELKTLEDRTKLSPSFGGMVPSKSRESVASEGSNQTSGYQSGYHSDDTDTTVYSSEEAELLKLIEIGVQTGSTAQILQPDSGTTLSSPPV

- Kd: 0.1 nM
Substance: VEGF-A (from UniProt P15692)
